Laboratory results published in patent US20120245104A1, “NOVEL RETRO-INVERSO LEPTIN PEPTIDE ANTAGONISTS” (priority 2011, published 2012).
Where no end group is shown, it is not given here.

T1: leptin receptor (ObR) (UniProt P48357 22-1165, limits assumed)
T1 sequence (looked up): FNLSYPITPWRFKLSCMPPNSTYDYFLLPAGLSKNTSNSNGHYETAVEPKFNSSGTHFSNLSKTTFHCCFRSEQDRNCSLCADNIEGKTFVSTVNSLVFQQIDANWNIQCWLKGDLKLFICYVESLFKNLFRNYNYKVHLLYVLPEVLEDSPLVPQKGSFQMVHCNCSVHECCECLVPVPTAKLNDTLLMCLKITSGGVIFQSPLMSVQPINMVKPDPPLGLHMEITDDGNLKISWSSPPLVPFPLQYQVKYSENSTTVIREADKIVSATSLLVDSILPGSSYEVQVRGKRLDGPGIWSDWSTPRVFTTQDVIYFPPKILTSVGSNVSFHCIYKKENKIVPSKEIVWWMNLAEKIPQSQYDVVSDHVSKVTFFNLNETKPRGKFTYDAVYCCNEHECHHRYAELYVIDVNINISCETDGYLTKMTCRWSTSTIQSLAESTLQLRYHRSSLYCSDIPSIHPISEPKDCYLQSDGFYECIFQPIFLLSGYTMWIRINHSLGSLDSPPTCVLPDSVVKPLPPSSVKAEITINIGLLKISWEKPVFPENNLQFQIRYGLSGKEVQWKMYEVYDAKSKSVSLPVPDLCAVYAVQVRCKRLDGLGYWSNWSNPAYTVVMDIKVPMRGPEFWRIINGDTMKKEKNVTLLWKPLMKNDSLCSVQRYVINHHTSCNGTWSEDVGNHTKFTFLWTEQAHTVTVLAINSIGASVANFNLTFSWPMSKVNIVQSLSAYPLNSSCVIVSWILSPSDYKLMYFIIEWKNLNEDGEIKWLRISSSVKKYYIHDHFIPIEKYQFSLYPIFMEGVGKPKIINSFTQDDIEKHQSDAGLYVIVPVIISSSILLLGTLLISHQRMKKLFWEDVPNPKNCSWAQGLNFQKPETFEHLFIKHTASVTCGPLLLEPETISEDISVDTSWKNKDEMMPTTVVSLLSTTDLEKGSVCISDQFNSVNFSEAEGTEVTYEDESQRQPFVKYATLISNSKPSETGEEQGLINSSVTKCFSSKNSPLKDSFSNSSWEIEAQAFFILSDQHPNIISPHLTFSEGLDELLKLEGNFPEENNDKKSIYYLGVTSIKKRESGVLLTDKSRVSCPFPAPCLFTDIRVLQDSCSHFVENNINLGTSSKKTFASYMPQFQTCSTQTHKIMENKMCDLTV


Columns and labels:
[1] = target: T1, leptin receptor (ObR); assay: cell-based or functional assay
[2] = target: T1, leptin receptor (ObR); assay: cell-based or functional assay; remark: listed apart in the source

Binder | IC50 (half maximal inhibitory concentration), inhibition of leptin-induced cell growth [1] [nM] | IC50, inhibition of leptin-induced growth of MCF-7 cells [2] [nM]
SRNVIQISNDLENLRDLLHVLAFSKS-NH2 [Full-length LPA-2 (70-95)] | 33 | 33
VQDDTKTLIKTIVTRINDI-NH2 [Truncated LPA-1 (6-24), T10 (original amino acid)] | 25.7 | 25.7
VQDDIKTLIKTIVTRINDI-NH2 [Truncated LPA-1 (6-24), T10 Ile substitution] | 21 | –
IQKVQDDTKTLIKTIVTRINDISHTQSVSSKQ-NH2 [Full-length LPA-1 (3-34)] | 39.1 | 39.1

Next, values leading:

IC50 (half maximal inhibitory concentration), inhibition of leptin-induced cell growth [1] [nM] | IC50, inhibition of leptin-induced growth of MCF-7 cells [2] [nM] | Binder
32 | 32 | NVIQISNDLENLRDLLHV-NH2 [Truncated LPA-2 (72-89), D79 (original amino acid)]
54 | – | NVIQISNALENLRDLLHV-NH2 [Truncated LPA-2 (72-89), D79 Ala substitution]
16 | – | NVIQISNILENLRDLLHV-NH2 [Truncated LPA-2 (72-89), D79 Ile substitution]
16 | – | NVIQISNLLENLRDLLHV-NH2 [Truncated LPA-2 (72-89), D79 Leu substitution]
